Source: the supplement of paper PMC10724198
± gives the standard deviation of the averaged measurements.

Test system: Saccharomyces cerevisiae
Assay: protein stability index of tFT-peptide fusion (C-terminal peptide) (PSI (0-1 scale)); higher = more stable (slower turnover)
Conditions: genetic background: wild type; temperature: 30 C
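Note: PSI is a weighted mean of sequencing reads over stability bins, variants kept only with over 10 reads, mCherry proximal and sfGFP distal, peptide attached via GGGS linker.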

| Sequence | protein stability index |
| --- | --- |
| FPSPLLPYPLLP | 0.747 ± 0.052 |
| AVRGYGCGGGTG | 0.6971 ± 0.0012 |
| INKRKQKLIKKV | 0.628 ± 0.0069 |
| PPPPPPPPPPSL | 0.746 ± 0.061 |
| TKKKTKKKEQKE | 0.6627 ± 0.0027 |
| SPPRATVRPTSP | 0.824 ± 0.078 |
| GATGGACGGWAG | 0.67249 ± 0.00044 |
| PVSPLPGPPPPP | 0.7681 ± 0.0053 |
| AAWPYKYYLAHI | 0.617 ± 0.061 |
| DQLGARSGELLR | 0.697 ± 0.063 |
| RPLLIYSPFPLF | 0.662 ± 0.075 |
| TGLSFIRCLDFK | 0.688 ± 0.055 |
| PRRPLSTPTPLV | 0.666 ± 0.049 |
| CNNRNKRMRKYI | 0.669 ± 0.031 |
| VGKHNLYSKNWR | 0.66 ± 0.016 |
| GVVPCVVGFICG | 0.687 ± 0.04 |
| HPRSAYSLAASL | 0.6633 ± 0.00083 |
| SRRRVTSCTARG | 0.729 ± 0.018 |
| AGVTGGDGYGRW | 0.583 ± 0.064 |
| RPQARAQRRQAC | 0.583 ± 0.034 |
| SLPRPPRPPQSH | 0.677 ± 0.038 |
| FGVSIGELAGRH | 0.686 ± 0.035 |
| RGPAFAQPLPFL | 0.738 ± 0.034 |
| VASSGRSPTPTR | 0.7551 ± 0.0015 |
| PITLRRRSRPPT | 0.692 ± 0.052 |
| LSYSFGCEFLWL | 0.674 ± 0.033 |

| Sequence | protein stability index |
| --- | --- |
| ARGGIGTCSWGG | 0.727 ± 0.0095 |
| SPPSPLSLPLPS | 0.707 ± 0.014 |
| EKVGAGVRLAWN | 0.695 ± 0.003 |
| KQGFVRARSYHP | 0.699 ± 0.013 |
| EWEKPEDLHKPA | 0.659 ± 0.058 |
| TVERLGSRRGMA | 0.712 ± 0.022 |
| QRARDSLVQTRH | 0.681 ± 0.032 |
| LPTPFKSSPSAA | 0.674 ± 0.024 |
| LLVSVHFSPPLY | 0.5515 ± 0.0023 |
| APPTTPPPGTHP | 0.696 ± 0.069 |
| LPPSRSLLPPRP | 0.6531 ± 0.0059 |
| ASLTNERCGASR | 0.679 ± 0.019 |
| WGWGRWEMVGRT | 0.695 ± 0.011 |
| PNPPPPPPPSSP | 0.742 ± 0.058 |
| DAVRRSSLSLAT | 0.711 ± 0.16 |
| LASTMTIMLPGC | 0.703 ± 0.15 |
| SGAADGDADRHP | 0.721 ± 0.029 |
| GRRWPVPGGVSA | 0.693 ± 0.09 |
| SSLLSLAFFAPS | 0.7147 ± 0.0056 |
| FIGFGCGLVWSV | 0.613 ± 0.019 |
| TGKQNRYVKKEK | 0.6955 ± 0.0031 |
| QNGNRPCCEKAW | 0.681 ± 0.021 |
| QKKRKKPGKWKS | 0.662 ± 0.022 |
| IIKRKKLMEKRT | 0.663 ± 0.013 |
| AWQGRVEGGDGA | 0.665 ± 0.024 |
| LANVGLDVSRIS | 0.696 ± 0.012 |

| Sequence | protein stability index |
| --- | --- |
| TWVPYIIMKRER | 0.669 ± 0.019 |
| PGDSALVLVTPQ | 0.703 ± 0.069 |
| RVRWRSQRSMVV | 0.689 ± 0.025 |
| PPPLLPPRPLAP | 0.731 ± 0.019 |
| TPPVPVPPPQLL | 0.748 ± 0.044 |
| LVTCPPPVGGPS | 0.691 ± 0.0083 |
| SLPLIPCPSPPL | 0.751 ± 0.065 |
| DPTWIKKRPSIP | 0.666 ± 0.044 |
| SPPPSPAPPPPP | 0.684 ± 0.083 |
| DLPDLQPACPRF | 0.722 ± 0.019 |
| PAEGVVGGKCYV | 0.685 ± 0.092 |
| DMCLSVIEQTAC | 0.6123 ± 0.0028 |
| CDSVATFCLRLF | 0.6234 ± 0.0031 |
| RLRPRRNMIDHA | 0.724 ± 0.057 |
| ITSQLWGVPLPY | 0.7134 ± 0.0032 |
| KSVAKLGHGGSP | 0.677 ± 0.064 |
| VRERGAGAVAGS | 0.715 ± 0.044 |
| LRPFSRVLRARS | 0.628 ± 0.019 |
| PRTRLPPQLRLP | 0.694 ± 0.02 |
| FFGFLLFCSRFS | 0.516 ± 0.016 |
| SPSLSFVFPVSL | 0.756 ± 0.039 |
| RGGASGPFVWAG | 0.71 ± 0.057 |
| IFSIRCFHSDFV | 0.6486 ± 0.0028 |
| GSSLRRLPASCD | 0.676 ± 0.066 |
| VKRSGSDGALHR | 0.685 ± 0.021 |
| PPPPHAHFPPPP | 0.652 ± 0.013 |

| Sequence | protein stability index |
| --- | --- |
| FVSPVPPRRVGA | 0.704 ± 0.037 |
| GGVGSMITWRVG | 0.689 ± 0.082 |
| SRPPPPSIYLSI | 0.6912 ± 0.0021 |
| WSWRGMVELVEE | 0.642 ± 0.069 |
| VGGRMGVDEGKG | 0.669 ± 0.02 |
| SPPPPPLPPPHP | 0.6564 ± 0.0035 |
| PPPLACLPLSLR | 0.71 ± 0.043 |
| IWFRGGPGQVPV | 0.683 ± 0.027 |
| RDPERYAQLTAP | 0.776 ± 0.0086 |
| SFLPHALPATAS | 0.682 ± 0.07 |
| LPPLLDSPPCSP | 0.733 ± 0.04 |
| PPPCPPPRRHPP | 0.605 ± 0.022 |
| HPPLTPLRANLP | 0.74 ± 0.039 |
| PSPPLPPPPSGP | 0.677 ± 0.067 |
| RRGAVHWKQFTR | 0.732 ± 0.072 |
| HIPAFLSRFIHG | 0.685 ± 0.038 |
| LPSSCVLHMFFP | 0.7111 ± 0.0024 |
| PPSPLPPPPPHP | 0.651 ± 0.079 |
| TARPDKDYPRLA | 0.678 ± 0.013 |
| EFPSGCSSVIVA | 0.655 ± 0.049 |
| KTINKEQKKKEM | 0.7 ± 0.036 |
| TAWVDSMVCMLL | 0.71 ± 0.034 |
| QIRRPRRFFYVS | 0.642 ± 0.17 |
